{
  "source": "paper doi:10.1101/644955",
  "target": "FLAG-tagged rainbow trout IL-2 (IL-2A), expressed in insect cells (rainbow trout (Oncorhynchus mykiss))",
  "assay": "SEC",
  "data": [
    {"substance": "FLAG-tagged rainbow trout IL-2 (IL-2A), expressed in insect cells (ligand)", "values": [
      {"measurement": "stoichiometry N", "result": 2}
    ]}
  ]
}
